Publication PMC4514675, “Novel Apo E-Derived ABCA1 Agonist Peptide (CS-6253) Promotes Reverse Cholesterol Transport and Induces Formation of preβ-1 HDL In Vitro” (PLoS ONE, 2015)
Where “and” joins values, the source holds several entries; their conditions need not be identical. Equal values may be shown once.

How the values were obtained:
ABCA1 [1] = biological target: ABCA1 (Homo sapiens, UniProt O95477); test: ABCA1-mediated cholesterol efflux from BHK-ABCA1 cells, acceptor in media; type: cell-based; set-up: expressed in transfected cells; host or cells: BHK cells, stably transfected, induced with 10 nM mifepristone (gift of J. F. Oram); conditions: BHK-ABCA1 induced with mifepristone, 4 h, 37°C, mean ± SD
From the text: (§1) BHK cells stably transfected with an ABCA1 or ABCG1 expression vector that is mifepristone inducible and cells transfected with the same vector lacking the ABCA1 cDNA insert (mutant or mock-transfected) were generously provided by the late Dr. John F. Oram from the Department of Medicine, University of Washington, and were characterized and cultured as previously described. […] Mouse-derived peritoneal macrophages J774 were purchased from American Tissue Culture Collection (ATCC TIB-67, Cederlane, Burlington, Canada). For induction of ABCA1, BHK cells were incubated for 18–20 h with 10 nM mifepristone. J774 macrophages were stimulated with 0.3 mM Cpt-cAMP 8-(4-Chlorophenylthio)-cyclic adenosine monophosphate (Sigma). All BHK and J774 macrophages cells were respectively grown and maintained in DMEM and RPMI containing 10% fetal serum until experimental treatment. Studies were carried out on standard 24-well plates (150,000 cells/well) unless stated otherwise
We investigated cholesterol efflux from BHK cells after adding lipid free CS-6253 to media cell culture or to human EDTA-plasma which had been stored at -80°C. BHK overexpressing human ABCA1 were labeled with 2 μCi/ml ^3H-free cholesterol (Perkin Elmer, Norwalk, Connecticut) for 24 h. Afterward, BHK-ABCA1 were stimulated with 10 nmol/l mifepristone for 18–20 h (13). Cells were incubated with various doses of acceptor in media for 4 h at 37°C. Alternatively, plasma samples were first pre-incubated for 5 min at 37°C in plasma at mole ratios (10:1 or 1:1 relative to plasma apo A-I). To obtain the HDL fraction, apoB lipoproteins were precipitated from plasma by polyethylene glycol (PEG). […]
Fig 2 Effect of CS-6253 treatment on cholesterol efflux. […] Cholesterol efflux from either ABCA1 cells or control cells to apo A-I (closed circles), and CS-6253 (closed triangles) was determined at the indicated time points. […] ABCA1 was detected from THP-1 foam cells lysis at 4°C with lysis buffer containing 0.5% n-dodecylmaltoside in the presence of a protease inhibitor mixture followed by low speed centrifugation to remove cell debris. Protein concentration was determined by standard assay (Bio-Rad). […] After electrophoresis, ABCA1 was detected by an anti-ABCA1 antibody. […] E. Quantification of FC and CE in foam cells after interaction with CS-6253 and apoA-I. After a period of 4h cholesterol efflux, THP-1 foam cell lipids were extracted with hexane: isopropanol (3v/2v) as under ‘‘Material and Methods’. 3[H]-FC and 3[H]-CE were separated by TLC and located by exposure to iodine vapor, and were scraped off into liquid scintillating vials and assayed for radioactivity. […]

ABCA1 [2] = biological target: T1, ABCA1 (Mus musculus, UniProt P41233); test: ABCA1-mediated cholesterol efflux from cAMP-treated J774 macrophages; type: cell-based; conditions: mean ± SD
T1 construct: host or cells: J774 mouse macrophages stimulated with Cpt-cAMP
From the text: as §1, with “All BHK and J774 macrophages cells were respectively grown and maintained in DMEM and RPMI containing 10% fetal serum until experimental treatment. Studies were carried out on standard 24-well plates (150,000 cells/well) unless stated otherwise” left out
All cell culture incubations were performed at 37 °C in a humidified 5% CO2. […] Media were collected, centrifuged at 3.000 g for 5min to remove cell debris, and counted for radioactivity. […] Further, 0.2 ml cells lysates were mixed with scintillation liquid and counted for radioactivity. […] Cholesterol efflux was calculated according to the following formula as the percentage of ^3H-cpm medium/(^3H-cpm medium + ^3H-cpm cells) x 100%. Efflux efficiency (Km) was calculated using the Michaelis-Menten equation (Graph-Pad Prism6 software) respectively (S1, S8 and S9 Figs.)

T1 sequence (P41233 whole entry): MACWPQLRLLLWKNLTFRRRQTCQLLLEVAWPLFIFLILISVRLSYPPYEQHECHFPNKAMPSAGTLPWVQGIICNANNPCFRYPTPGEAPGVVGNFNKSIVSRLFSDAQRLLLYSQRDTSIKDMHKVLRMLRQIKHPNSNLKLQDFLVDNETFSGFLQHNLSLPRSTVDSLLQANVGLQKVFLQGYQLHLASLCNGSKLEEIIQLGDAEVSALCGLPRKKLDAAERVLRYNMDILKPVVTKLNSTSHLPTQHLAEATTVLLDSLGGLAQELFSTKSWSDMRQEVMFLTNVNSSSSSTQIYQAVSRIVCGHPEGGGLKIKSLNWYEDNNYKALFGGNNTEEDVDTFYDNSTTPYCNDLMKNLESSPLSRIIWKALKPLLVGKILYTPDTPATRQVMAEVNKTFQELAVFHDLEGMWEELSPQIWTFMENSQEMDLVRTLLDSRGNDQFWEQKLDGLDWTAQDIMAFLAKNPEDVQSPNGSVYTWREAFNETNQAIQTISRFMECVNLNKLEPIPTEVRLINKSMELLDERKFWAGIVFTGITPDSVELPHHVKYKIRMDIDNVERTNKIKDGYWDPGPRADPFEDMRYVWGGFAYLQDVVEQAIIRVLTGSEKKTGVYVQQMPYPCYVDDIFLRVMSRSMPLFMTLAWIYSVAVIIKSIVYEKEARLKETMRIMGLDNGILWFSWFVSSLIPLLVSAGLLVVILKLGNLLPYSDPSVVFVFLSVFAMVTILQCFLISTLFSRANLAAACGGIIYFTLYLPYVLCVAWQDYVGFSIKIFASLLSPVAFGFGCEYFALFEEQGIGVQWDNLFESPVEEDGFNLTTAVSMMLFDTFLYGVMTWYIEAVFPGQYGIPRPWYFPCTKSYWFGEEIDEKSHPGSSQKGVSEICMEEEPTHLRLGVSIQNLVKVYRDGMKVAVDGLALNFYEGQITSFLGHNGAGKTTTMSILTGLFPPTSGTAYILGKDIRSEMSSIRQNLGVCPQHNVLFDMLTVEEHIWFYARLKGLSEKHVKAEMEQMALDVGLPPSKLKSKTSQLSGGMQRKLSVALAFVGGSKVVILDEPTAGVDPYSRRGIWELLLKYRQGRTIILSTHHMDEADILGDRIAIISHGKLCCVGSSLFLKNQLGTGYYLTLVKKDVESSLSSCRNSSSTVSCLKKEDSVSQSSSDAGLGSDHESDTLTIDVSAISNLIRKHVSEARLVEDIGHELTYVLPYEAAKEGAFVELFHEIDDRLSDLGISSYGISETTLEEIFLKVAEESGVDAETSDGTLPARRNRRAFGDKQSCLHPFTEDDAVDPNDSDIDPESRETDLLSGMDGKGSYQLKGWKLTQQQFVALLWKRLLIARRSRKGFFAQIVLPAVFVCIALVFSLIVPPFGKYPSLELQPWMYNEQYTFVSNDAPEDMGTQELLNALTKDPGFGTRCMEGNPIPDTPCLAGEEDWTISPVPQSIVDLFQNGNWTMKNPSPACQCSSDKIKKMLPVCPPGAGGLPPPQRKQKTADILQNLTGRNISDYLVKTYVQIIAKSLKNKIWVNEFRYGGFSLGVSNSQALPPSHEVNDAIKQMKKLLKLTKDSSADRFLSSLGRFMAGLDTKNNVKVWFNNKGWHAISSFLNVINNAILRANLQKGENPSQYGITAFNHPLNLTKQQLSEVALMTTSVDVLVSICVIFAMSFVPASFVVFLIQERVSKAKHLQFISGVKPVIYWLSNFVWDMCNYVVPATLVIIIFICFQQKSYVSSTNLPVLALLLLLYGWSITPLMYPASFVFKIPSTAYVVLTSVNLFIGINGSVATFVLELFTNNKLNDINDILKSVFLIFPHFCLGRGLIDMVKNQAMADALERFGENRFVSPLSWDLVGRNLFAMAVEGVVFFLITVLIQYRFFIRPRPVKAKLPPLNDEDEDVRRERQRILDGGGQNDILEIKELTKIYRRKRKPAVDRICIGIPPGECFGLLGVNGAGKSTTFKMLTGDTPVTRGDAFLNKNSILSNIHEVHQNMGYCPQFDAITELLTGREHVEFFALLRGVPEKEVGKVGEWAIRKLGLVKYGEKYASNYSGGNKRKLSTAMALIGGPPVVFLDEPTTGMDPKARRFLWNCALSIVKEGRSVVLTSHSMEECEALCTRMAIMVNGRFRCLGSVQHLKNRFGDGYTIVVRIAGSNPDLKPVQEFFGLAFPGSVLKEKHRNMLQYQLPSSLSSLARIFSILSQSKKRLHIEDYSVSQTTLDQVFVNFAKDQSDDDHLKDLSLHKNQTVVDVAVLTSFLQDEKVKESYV
Chain of ABCA1 (Homo sapiens, UniProt O95477) (O95477 whole entry): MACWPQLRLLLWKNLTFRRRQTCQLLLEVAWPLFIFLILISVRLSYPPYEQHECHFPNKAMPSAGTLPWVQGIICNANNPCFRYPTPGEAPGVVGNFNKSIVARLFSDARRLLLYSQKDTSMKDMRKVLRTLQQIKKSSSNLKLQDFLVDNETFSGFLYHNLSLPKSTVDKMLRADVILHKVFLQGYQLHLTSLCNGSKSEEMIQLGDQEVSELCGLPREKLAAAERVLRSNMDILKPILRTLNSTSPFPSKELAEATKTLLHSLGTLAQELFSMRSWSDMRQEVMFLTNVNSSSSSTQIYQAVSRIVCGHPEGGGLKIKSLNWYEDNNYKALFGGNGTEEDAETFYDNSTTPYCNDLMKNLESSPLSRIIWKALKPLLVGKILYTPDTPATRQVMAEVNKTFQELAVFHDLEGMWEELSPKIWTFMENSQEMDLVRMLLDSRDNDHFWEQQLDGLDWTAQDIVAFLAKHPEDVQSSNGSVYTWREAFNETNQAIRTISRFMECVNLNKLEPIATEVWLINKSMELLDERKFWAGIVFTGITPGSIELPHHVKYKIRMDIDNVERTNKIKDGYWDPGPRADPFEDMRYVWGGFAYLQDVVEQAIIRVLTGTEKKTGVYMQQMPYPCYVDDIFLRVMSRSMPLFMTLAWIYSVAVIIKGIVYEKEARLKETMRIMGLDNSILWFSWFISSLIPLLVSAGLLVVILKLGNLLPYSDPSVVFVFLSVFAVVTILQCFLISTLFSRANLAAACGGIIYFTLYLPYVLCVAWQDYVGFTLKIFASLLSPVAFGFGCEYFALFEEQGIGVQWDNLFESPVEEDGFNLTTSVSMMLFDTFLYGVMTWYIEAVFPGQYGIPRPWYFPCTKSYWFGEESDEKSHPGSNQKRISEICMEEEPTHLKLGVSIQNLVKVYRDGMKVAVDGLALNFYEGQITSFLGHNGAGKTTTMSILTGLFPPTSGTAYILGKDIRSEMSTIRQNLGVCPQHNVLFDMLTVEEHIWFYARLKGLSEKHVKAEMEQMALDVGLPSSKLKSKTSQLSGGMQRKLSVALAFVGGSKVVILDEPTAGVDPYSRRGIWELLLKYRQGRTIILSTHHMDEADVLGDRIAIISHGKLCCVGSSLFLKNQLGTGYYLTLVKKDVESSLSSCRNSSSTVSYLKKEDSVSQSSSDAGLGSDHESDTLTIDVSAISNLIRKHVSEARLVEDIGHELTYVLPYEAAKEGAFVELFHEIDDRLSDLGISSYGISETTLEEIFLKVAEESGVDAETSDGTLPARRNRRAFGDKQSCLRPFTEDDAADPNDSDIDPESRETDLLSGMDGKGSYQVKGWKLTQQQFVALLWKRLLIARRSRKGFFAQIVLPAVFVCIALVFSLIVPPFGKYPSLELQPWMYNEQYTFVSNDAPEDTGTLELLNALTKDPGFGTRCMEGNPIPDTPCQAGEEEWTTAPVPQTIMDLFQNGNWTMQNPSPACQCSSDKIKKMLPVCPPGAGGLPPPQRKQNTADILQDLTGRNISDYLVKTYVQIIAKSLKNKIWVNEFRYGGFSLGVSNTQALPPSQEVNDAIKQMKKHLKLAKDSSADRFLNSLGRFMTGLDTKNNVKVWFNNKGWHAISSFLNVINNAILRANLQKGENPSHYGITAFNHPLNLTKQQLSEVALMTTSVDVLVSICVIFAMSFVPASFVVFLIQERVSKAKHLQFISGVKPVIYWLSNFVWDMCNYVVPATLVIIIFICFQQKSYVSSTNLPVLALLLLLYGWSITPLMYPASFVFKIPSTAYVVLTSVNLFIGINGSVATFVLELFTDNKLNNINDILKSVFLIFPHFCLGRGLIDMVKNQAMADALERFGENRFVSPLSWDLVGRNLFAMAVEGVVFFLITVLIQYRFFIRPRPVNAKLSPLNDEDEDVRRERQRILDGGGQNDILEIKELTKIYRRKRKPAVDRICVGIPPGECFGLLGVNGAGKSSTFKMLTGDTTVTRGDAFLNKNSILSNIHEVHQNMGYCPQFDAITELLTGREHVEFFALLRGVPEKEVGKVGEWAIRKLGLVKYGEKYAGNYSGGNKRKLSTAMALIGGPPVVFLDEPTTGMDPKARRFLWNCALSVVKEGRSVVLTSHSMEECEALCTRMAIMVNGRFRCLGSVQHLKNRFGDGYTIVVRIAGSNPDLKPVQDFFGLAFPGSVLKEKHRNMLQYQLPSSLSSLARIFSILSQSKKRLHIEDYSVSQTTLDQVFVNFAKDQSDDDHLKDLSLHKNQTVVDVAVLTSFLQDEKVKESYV

## apolipoprotein A-I [apo A-I]
ABCA1 [1]
  Km: 0.15 ± 0.02 µM
  Km, cholesterol efflux: 4.53 ± 0.67 µg/mL
ABCA1 [2]; 6 h
  Km, cholesterol efflux: 3.82±1.81 μg/ml and 0.15±0.05 μM
ABCA1 [2]
  Vmax, cholesterol efflux: 6.90±1.06 % efflux/6h
